Reference: publication PMC3899027
“And” between values parts separate entries of the source, which are not always exact repeats. Identical values can stand only once.

Key:
[1] = target: ExsG (wild-type, full-length) (Rhizobium NT-26); test: AUC; sedimentation velocity; 50 mM Tris-HCl pH 8.0, 250 mM or 30 mM NaCl; seven concentrations 0.2-2 mg/ml; 40,000 rpm, 20°C; c(s) in SEDFIT
[2] = target: ExsG (wild-type, full-length) (Rhizobium NT-26); test: AUC; sedimentation equilibrium; 50 mM Tris-HCl pH 8.0, 250 mM NaCl; six concentrations 0.1-1.5 mg/ml; 7, 11, 16, 24 krpm, 20°C; SEDFIT and SEDPHAT
[3] = target: ExsG (wild-type, full-length) (Rhizobium NT-26); test: native MS; nESI-MS at raised ionic strength: 400, 600 and 800 mM ammonium acetate pH 8, 0.1 mM DTT; 30-40 μM (monomer); disassembly of the hexamer
[4] = target: ExsG (wild-type, full-length) (Rhizobium NT-26); test: native MS; nESI-MS and IM-MS; 150 mM ammonium acetate pH 8, 0.1 mM DTT; 30-40 μM (monomer); native, phosphoramidate-treated or AMP-PNP-treated samples
[5] = target: ExsG (wild-type, full-length) (Rhizobium NT-26); test: as above; remark: listed apart in the source
AgR (Rhizobium NT-26) = test: SEC; Superose 6; 50 mM Tris-HCl pH 8.0, 30-500 mM NaCl, 1 mM βME; peak positions invariant irrespective of loading concentrations
[6] = target: ExsG phosphorylated on Asp62 by phosphoramidate (Rhizobium NT-26); test: native MS; nESI-MS and IM-MS; 150 mM ammonium acetate pH 8, 0.1 mM DTT; 30-40 μM (monomer); native, phosphoramidate-treated or AMP-PNP-treated samples
[7] = target: ExsG receiver domain (ExsG-REC, residues 1-129) (Rhizobium NT-26); test: SEC; Superose 6; 50 mM Tris-HCl pH 8.0, 30-500 mM NaCl, 1 mM βME; peak positions invariant irrespective of loading concentrations
[8] = target: BphP1 kinase core (BphP1-HK, residues 462-703) (Rhizobium NT-26); test: as above

## ExsG (wild-type, full-length) (enzyme)
[1]
  stoichiometry N: 6
[2]
  stoichiometry N: 6
[3]
  stoichiometry N: 2 and 4
[4]
  stoichiometry N: 6
[5]
  stoichiometry N: 2

## AgR (natural protein)
AgR (Rhizobium NT-26)
  stoichiometry N: 2

## ExsG phosphorylated on Asp62 by phosphoramidate (enzyme)
[6]
  stoichiometry N: 6

## ExsG receiver domain (ExsG-REC, residues 1-129) (domain or fragment)
[7]
  stoichiometry N: 2

## BphP1 kinase core (BphP1-HK, residues 462-703) (domain or fragment)
[8]
  stoichiometry N: 2
